This is an account of results in the DeepSol protein solubility set.

A short description of this data set: soluble on expression in E. coli; label from the status in PepcDB or PDB records.
On to “MGSDKIHHHHHHMNEIVKLISKHNDVRTGAINLIVSENRMSPAALAALSSDLASRYAAPFYAGTDISQEIVAITEQKAKKLFNAEYVNISPISGSASLMAVVFALTSPGDKVGRVPPFFPGGGYPFNYEVFDRVSLPLPFDDEEWQLDLEATLELLEREKPKLVILGASIFTVPMPVREVADLVHSYGGIVAYDGSHSLGLIVGKQYQDPLNEGADILFGSTHKTFPGPQGGIIVTNSKELNDRIDIVSNFTPLNGPTMICNPHLARIASLGIVIDEVPWERYAEQVVKNSRAFANTLQAKGYEMRGQSTKKFSELSYCHQVLPKLDRQMGQGYRDKLKQHNIHVDGFMRVGTAEITRLGYVEADCTRISEIMAEIVSSNQDVIPSLRHEVVEMNANHQHIVM”, for which the “soluble on expression in E. coli” value is given as “not soluble”.
For “MAHHHHHHMAWCDASFSVIYGNEELVVVNKPHDVPMDGEACPVTVEKWAWAYLAKGGCADNNAGGGVEKEDDTTRTAGRRRGEKKMVKFVHQLDYATSGVLCVAFSREMAARLAHCFEMRTTRKAYLAVLFGMMPTTSAMQKKLDTDTGVDFLRGSPYASHVRRVSMDDVPGVCFIRKCVIEASGHEEGENADCCATLLEVNLPVGYDTTDHEGFRMTVNGRDARGSVTYLSVLQRGYMTHPTSGCPVPVTKVALFPRTGRRHQLRVHCHAIGFPILGDVTYARIPTPRVAPKVTGAEEVATVGATESINAPNEIGAIEAWQRMMLHAWRLSFPVSVEPLRSGSERYMQKKKRRRETLGLAVAGGDDTTVWTHFETEDPFQLVRPE”, the “soluble on expression in E. coli” value is reported as “not soluble”.
Then “GPGSMRTSADIACLLAQYIKGQPEERLVTAAAYPDIFTPDVVEELNGAYALLLDAQRQAREACCAVDDVTREHGLPTALRITPKEQNELDVTEEMMIKRFAEEVAVYLSEGGAPNISSDAEPTSVLNSHCVDLRWHQHSTLVLHVLSYLPLEFTLSVAENVCKGWREWLFIPEFSGMFWHECTMREYPECVRMLLLSGGGDARQCDWRTFAMLCCSVDEEDISGEGTRSPDLVHS”, with “not soluble”; and “MGSDKIHHHHHHMMRGAPMTLRPRLICLPPAGAGPSLFRSWVQNSESIFDVVPVALPGREAHFTKPLPRDIQSLADHVTNEIIGLLQAPYALFGYSMGAVVAYELLRHLSLRRLPLPDAFYILGSNAPDRVLEGREPIHSMTSEDFQQSLVEIGGTPDEILRDREAMALFEPVLRNDFRICETYEFTPPHLPVTFPVHVFVADADHLVSWKAAGAWENCIGQDITMHGIEGSHMLPPQAFAHFIGKLGQLWQTDQVQACAVSTRTA”, with “not soluble”; and “MNSFKTRDVQVAVEAVEKEKIEFIPLRRTLRYLIVGIDPGATTAIAALDLRGELVDMKSRKGWSPAEVIEFISSLGKPVVVSTDKSSPPEFVSKIRASFNAVLYTPKEDMSVEKKRILTSKYSTSNDLEHHHHHH”, with “not soluble”.
With “MARWERIVDGVKSIALMRKKIITRGKRIALFVDGPNILRKELGIHLEDIVEALSKLGNIRVAKVILNQYAPQSLIEAVSNQGFEPVIVAGEIGVKMAVEAMREVYNPNIDMIALATRNTEFVPIILKAKEKGKETAIIGVEHGLSSALKHAADYVIILKPRGEKIEERHHEDSEERREGGRGA”, the “soluble on expression in E. coli” value is “not soluble”.
Under “MSLKLVTFDLDDTLWDTAPAIAGAEVTLRDWLAEHAPKLGAIPVEHLWEIRSRLVAEDPSFKHRISALRRRVLFHALEDAGYDPDEAQDLADRGFEVFLHGRHQVQIFPEVQPMLEILAKTFTLGVITNGNADVRRLGLADYFAFALCAEDLGIGKPDPAPFVEALRRAKVDASAAVHVGDHPKDDIAGAQQAGMRAIWYNPQGKAWDADRLPDAEIHNLSQLPEVLARWAEGHHHHHH” stands “soluble”; under “MGSDKIHHHHHHMSTLPHLGFQVYQPCAPLLPYVRCYWQITRIAAPETRSTEFMHPEGGTGIIFNFGAPMHFDGWQHRAQCLVTGPTKQSTRLELSGRVDALGIRFWPGAGRAFLKTPLSEMLGQTLTPADLSLALLSDELAERLAVLPTAPERIALLETRLLHYLTAHGSQTQTTEPSMKYALNWIAEQKGQGEIRNLLTEIDISQRQLERLFQQNLGMSPKNYSILQRTGFARELLKSDTDSPLTDIGYQAGFYDQAHFIREFKQVIGITPGQFRSKALLRR”, “not soluble”; under “MVSDAAERNLAFALSELDRITAQLKLPRHVEEEAARLYREAVRKGLIRGRSIESVMAACVYAACRLLKVPRTLDEIADIARVDKKEIGRSYRFIARNLNLTPKKLFVKPTDYVNKFADELGLSEKVRRRAIEILDEAYKRGLTSGKSPAGLVAAALYIASLLEGEKRTQREVAEVARVTEVTVRNRYKELVEKLKIKVPIA”, “soluble”.
Under “MGHHHHHHSHMLGSWPARTFHPGACVSRRPSAPWKHTASGKDSPDLRFSEHGVSQEFWAGGLVAVLEMTPSPSPWGTQEDPAGMCSLWVVGWCPCRGAGVRDLVLVHAGVWCKHVCAVQRDACGESRTPAPPRKGGAVTSVLCLFLIKTFPLFSYKFASCKQVHKDPPLVKSGFE” stands “soluble”.
Then “MGSDKIHHHHHHMYQELPPLPWLRAFDASARLGNFTLAAQELGLTPSAVSYQVRGLEATLGHKLFVRKQKSLFLTRLGQAYLPVVSKAFGDLEATTSNLFGKSAAQEITLRCLSSLNMLWLAPRLSRFQAQHPDCRLRVLSALWGETPEALQIDIDIRYGNGSWSDGEVTRLMHHEVLAVCAPALHPGPDPQAIASCPLIEVIGVTDTWHHFFALHGLAPPSSGPALKVDQSLIALELATRGMGVALIARVFAQRYLESGALVEATDLALPAREGHYIVQPEARNHFRPEVAALKDWLLQEAAQTGC”, with “not soluble”; and “MSLKKAIAYMRFSSPGQMSGDSLNRQRRLIAEWLKVNSDYYLDTITYEDLGLSAFKGKHAQSGAFSEFLDAIEHGYILPGTTLLVESLDRLSREKVGEAIERLKLILNHGIDVITLCDNTVYNIDSLNEGHHHHHH”, with “not soluble”.
With “MEKYIKEQRSICDKYKAEYVESPNDLKLGIAQNVKDGIAPINGLRMPIENGTTGWYIWAGEEMGTEEDFFLPLHVQHIDEWAPEIKKYLGLPPGWRFLIAGDYEDVWYDPNLFDEDLEEDADEWEENMLQEYGWYMHSILAEDIDGIHANYHTHGLRDNFNHQDLQIALNMDPEVAHSVFCTIIEEIKSGKKFEQGIEYTNIIEGYPIIMKSFVEMDREVLRVLLPDERGILPTRPECDECYKTQLDDIEES”, the “soluble on expression in E. coli” value is “not soluble”.
Then “MGSDKIHHHHHHMHISNMDGLDILSLKILVSLYENKSATYVSKALDIPAPKISRSLKNLREIFGDELFIRRKYGLFPNEFATHLYPIAKEAIECTDKFHKARAANANLVKTHIEIAAPGLIAYAFPKALMQAIKDEQKLMHINITPWSMHTTQDIINGDTTLGICCNKSTADVAAFGDKLLTTTLQSMDKVYLLASRNHPIFKREITLETIAEYPYVNTDLGNPSSKLSPYQEFCLKSNIKLNTEITITSISSLFEYLGESQALSLLPYRVVYEMVSDVAELHTCQLSQLEAERLYAHAEAPTIFLVQKNQPNKVNDDLVWLSGQIKKIVDHII”, with “not soluble”; and “MKPYYVTTAIAYPNAAPHVGHAYEYIATDAIARFKRLDRYDVRFLTGTDEHGLKVAQAAAAAGVPTAALARRNSDVFQRMQEALNISFDRFIRTTDADHHEASKELWRRMSAAGDIYLDNYSGWYSVRDERFFVESETQLVDGTRLTVETGTPVTWTEEQTYFFRLSAYTDKLLAHYHANPDFIAPETRRNEVISFVSGGLDDLSISRTSFDWGVQVPEHPDHVMYVWVDALTNYLTGAGFPDTDSELFRRYWPADLHMIGKDIIRFHAVYWPAFLMSAGIELPRRIFAHGFLHNRGEKMSKSVGNIVDPVALAEALGVDQVRYFLLREVPFGQDGSYSDEAIVTRINTDLANELGNLAQRSLSMVAKNLDGRVPNPGEFADADAALLATADGLLERVRGHFDAQAMHLALEAIWLMLGDANKYFSVQQPWVLRKSESEADQARFRTTLYVTCEVVRIAALLIQPVMPESAGKILDLLGQAPNQRSFAAVGVRLTPGTALPPPTGVFPRYQPPQPPEGK”, with “not soluble”.
Under “MEYHMGNTMTKAIYDKFKSATPYGNKVATGPTPTEAVDITVSVGGFKVGDQNYPINPKITFTNNTGQAIPGGTEFQFDIPVSAPDNAKDQSGGGLKVIASGHTRANNIGGLDGVMHRVSFSLPAWKDLPAGGTYELDMVYYLPISGPANYSVISGGKEFAFKFEQPDLPIGDLNALEHHHHHH” stands “soluble”.
Then “MKDDIKRRIDLAAGRKRSQLVLKNAQILNVFSHEIISGDIAIDQGKIVGIGNYNGLENIDLEGKVVVPGLIDGHVHMESAMVTPGQFARAIVPRGTTTIVADPHEIANVCGIPGIEYMLKASEGMPLNVYMMLPSCVPATSFENAGANLKAKDLAPLINHEKVLGLGELMDYPGVIAGEESIIDKIMIAEGKMIDGHGPDIKEEALNAYVAAGVRTEHECSTVEEMINRLRLGMYILIREGSAARNLKTLVRGITPENMRRCLFCTDDKHPEDILEAGHIDHNVRVAIKEGLDPISAVKMATINAAECYGLKDLGAIAPGYRADLVVLDNLETFHVTKVFKDGKLVAQDGKAFFEAQSTEDHTVTQTVNAKELTPEDLVLSLETDIVNVIKLLPHSLVTQRVSRKVEVKEGTFRYHEDLDILKLAVIERHKRTGNIGLGLVEDFRLKGGAIASTVAHDSHNIIVIGDNDEDMLLAVNELNTVGGGITICSKGEILQTLSLPIAGLMAQGTMEEVNEQLKQMLEIAYKKLGINEQIDPFMTLSFLALPVIPELKLTDLGLFDVKNFRFISLNR”, with “not soluble”; and “SIRLPAHLRLQPIYWSRDDVAQWLKWAENEFSLSPIDSNTFEMNGKALLLLTKEDFRYRSPHSGDVLYELLQHILKQRDLEAEAAAAEAAAKA”, with “soluble”.
As to “MSLSDLFTTIKGQVTGKNVRIVLPEGTDERIVGAAARLQKENIVKPILLGNKAEIEAKAKEIGVSVEGIAIHEPATDPLFDELVAAFVERRKGKATEEAARKMLVDPNYFGTMLVYTGKAEGLVSGAAHSTGDTVRPALQIIKTKPGVSKVAGAMIMVRGEERYLFSDVAINIAPVAADLAENAIVSAETAEIFGIDPRVAMLSFSTKGSAKSDETEKVVEATALAKEKAPELTLDGEFQFDAAFVPTVAEKKAPGSVIKGDANVFIFPSLEAGNIGYKIAQRLGNFEAVGPILQGLNAPVNDLSRGCNTDDVYNLTLITAAQAVNKEGHHHHHH”, the “soluble on expression in E. coli” value is “soluble”.
Regarding “MKRISYIEDFEQWESGFSFYNPVKVRFGEVDMFGHVNNVVAFTYFEEARIALFKELGFMQEWTHASSETMIVVADLQCNFIKQIYFDEQLKVYVKAGSVGNSSLDLHYMVKNAEGEICLVGRGMMVQASKKTGRGEPWPEEWKKKLLQ”, the “soluble on expression in E. coli” value is listed as “soluble”.
For “MLPSKEELLALLSKECELYASIPDSEQQKKRNKKHFINGLMTACRVVGISFEELNTIIEQMPKKPIFKDLDEQLSVPTYVRNRVDIKL”, the “soluble on expression in E. coli” value is “not soluble”.
Under “MRDPLCDESYLLKTIESNRKFISKRKEKIIGLKADIENGIQRYPRDNQSIIYITFSQMFMYGMNMLLAKYSLGNHPDTMIDDYLDNITYLENCGEEEAGYINLLWMVGLGILLEMDKEVLKRLARVIERQRIEDALMDFLLKACDIGWNHSTTKYEKKNPYEKTVEIIKIALHDKDKEAASKRLEKYMEKEWFKGHYDFGWRNAHKEPGYYGFWSFDTAALAKILGLDDSALKDNNHYPYDLAHYKNGMTFDLSWYSEPREEEVREETVVYGIPGNPLLERIIPGRFHSFVNEIINDYKTLPDEEFWKKYNLKEIWFDVEEYKEDNKDKNLLGTIIVFMLVDKDYILQLDYKEELIDYIENIHNYWPKEEVKLISFELDNDQQYYAYVPKDAEAGSLYEVKVTEVEKIEEV” stands “not soluble”.
